{"source": "paper PMC6624267", "biological_target": "CARD11^8–172 (human) (UniProt Q9BXL7)", "test": "SEC-MALS; CARD11^8–172 alone; measured 36.5 kDa against 39.4 kDa expected for a dimer"}
{"substance": "CARD11^8–172 (from UniProt Q9BXL7 8-172) (domain or fragment)", "values": [{"measurement": "stoichiometry N", "value": 2}]}
